Measured values published in ChEMBL document CHEMBL1126580, “Enantiospecific syntheses of alpha-(fluoromethyl)tryptophan analogues: interactions with tryptophan hydroxylase and aromatic L-amino acid decarboxylase” (J Med Chem, 1993).

How the values were obtained:
[1] = substrate: N[C@@](CF)(Cc1c[nH]c2ccccc12)C(=O)O; assay: Km value was evaluated as a substrate for P815 tryptophan hydroxylase […]
[2] = substrate: N[C@@](CF)(Cc1c[nH]c2ccccc12)C(=O)O; assay: Compound was evaluated as a substrate for P815 tryptophan hydroxylase […]

B1: Tryptophan 5-hydroxylase 1 (Rattus norvegicus), P09810 (protein)
chain: MIEDNKENKDHSSERGRVTLIFSLKNEVGGLIKALKIFQENHVNLLHIESRKSKRRNSEFEIFVDCDINREQLNDIFPLLKSHTTVLSVDSPDQLPEKEDVMETVPWFPKKISDLDFCANRVLLYGSELDADHPGFKDNVYRRRRKYFAELAMNYKHGDPIPKIEFTEEEIKTWGTIFRELNKLYPTHACREYLRNLPLLSKYCGYREDNVPQLEDVSNFLKERTGFSIRPVAGYLSPRDFLSGLAFRVFHCTQYVRHSSDPLYTPEPDTCHELLGHVPLLAEPSFAQFSQEIGLASLGASEETVQKLATCYFFTVEFGLCKQDGQLRVFGAGLLSSISELRHALSGHAKVKPFDPKVACKQECLITSFQDVYFVSESFEDAKEKMREFAKTVKRPFGVKYNPYTQSIQVLRDSKSITSAMNELRHDLDVVNDALARVSRWPSV
Km [1]: 4.31 mM
Vmax (uM min-1 (mg of protein)-1) [2]: 17.7
